# Measured values: patent US20240058465A1 (SUTRO BIOPHARMA, published 2024)
# How the values were obtained:
# [1] = target: receptor tyrosine kinase orphan receptor 1 (ROR1) on Ntera-2 cells (human, UniProt Q01973 30-937); experiment: cell-based or functional assay
# human ROR1 (hROR1) [2] = target: T1, human ROR1 (hROR1) (human, UniProt Q01973 30-937); experiment: cell-based or functional assay
# human ROR1 (hROR1) [3] = target: T1, human ROR1 (hROR1); experiment: flow cytometry, HCT116-hROR1 cells
# [4] = target: T2, human ROR1 Frizzled domain (hROR1-Fz) (human, UniProt Q01973 165-305); experiment: SPR Biacore, IgG on anti-Fc, ROR1-Fz analyte
# T2 construct: Acro Biosystems, made in HEK293
# Summary of the method: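 Test antibodies captured on an anti-Fc surface (CM5 chip), then analyte bound for 180 s with 600 s dissociation at 25° C in HBS-EP+ buffer at 50 μL/min. Human ROR1 ECD, Frizzled or Kringle domain used as analyte; regeneration with 10 mM glycine pH 2.0.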
Binder,Bmax (MFI) (human ROR1 (hROR1) [3]),Kd (human ROR1 (hROR1) [3]),Kd [4],koff [4],kon [4],"cell killing EC50, NTERA-2 cells [1]","cell killing Span, NTERA-2 cells [1]","Mino Nb-PBD, drug-conjugated 2° antibody Cell Killing EC50 (human ROR1 (hROR1) [2])","Mino Nb-PBD, drug-conjugated 2° antibody Cell Killing Span (human ROR1 (hROR1) [2])"
"Conjugate 37 (D04-F404-LP33) (antibody, human IgG1, kappa, pAMF at F404 (EU), linked to LP33) heavy: MEVQLVESGGGLVQPGGSLRLSCAASGFNISDYDIHWVRQAPGKGLEWVGGIDPADGSTDYADSVKGRFTISADTSKNTAYLQMNSLRAEDTAVYYCARDYGVYDYWGQGTLVTVSSASTKGPSVFPLAPSSKSTSGGTAALGCLVKDYFPEPVTVSWNSGALTSGVHTFPAVLQSSGLYSLSSVVTVPSSSLGTQTYICNVNHKPSNTKVDKKVEPKSCDKTHTCPPCPAPELLGGPSVFLFPPKPKDTLMISRTPEVTCVVVDVSHEDPEVKFNWYVDGVEVHNAKTKPREEQYNSTYRVVSVLTVLHQDWLNGKEYKCKVSNKALPAPIEKTISKAKGQPREPQVYTLPPSREEMTKNQVSLTCLVKGFYPSDIAVEWESNGQPENNYKTTPPVLDSDGSFLYSKLTVDKSRWQQGNVFSCSVMHEALHNHYTQKSLSLSPGK light: not shown",,,,,,0.01 nM,89%,,
"Conjugate 41 (D04-F404-LP24) (antibody, human IgG1, kappa, pAMF at F404 (EU), linked to LP24) heavy: MEVQLVESGGGLVQPGGSLRLSCAASGFNISDYDIHWVRQAPGKGLEWVGGIDPADGSTDYADSVKGRFTISADTSKNTAYLQMNSLRAEDTAVYYCARDYGVYDYWGQGTLVTVSSASTKGPSVFPLAPSSKSTSGGTAALGCLVKDYFPEPVTVSWNSGALTSGVHTFPAVLQSSGLYSLSSVVTVPSSSLGTQTYICNVNHKPSNTKVDKKVEPKSCDKTHTCPPCPAPELLGGPSVFLFPPKPKDTLMISRTPEVTCVVVDVSHEDPEVKFNWYVDGVEVHNAKTKPREEQYNSTYRVVSVLTVLHQDWLNGKEYKCKVSNKALPAPIEKTISKAKGQPREPQVYTLPPSREEMTKNQVSLTCLVKGFYPSDIAVEWESNGQPENNYKTTPPVLDSDGSFLYSKLTVDKSRWQQGNVFSCSVMHEALHNHYTQKSLSLSPGK light: not shown",,,,,,> 10 nM,< 10%,,
"Conjugate 42 (D04-F404-LP25) (antibody, human IgG1, kappa, pAMF at F404 (EU), linked to LP25) heavy: MEVQLVESGGGLVQPGGSLRLSCAASGFNISDYDIHWVRQAPGKGLEWVGGIDPADGSTDYADSVKGRFTISADTSKNTAYLQMNSLRAEDTAVYYCARDYGVYDYWGQGTLVTVSSASTKGPSVFPLAPSSKSTSGGTAALGCLVKDYFPEPVTVSWNSGALTSGVHTFPAVLQSSGLYSLSSVVTVPSSSLGTQTYICNVNHKPSNTKVDKKVEPKSCDKTHTCPPCPAPELLGGPSVFLFPPKPKDTLMISRTPEVTCVVVDVSHEDPEVKFNWYVDGVEVHNAKTKPREEQYNSTYRVVSVLTVLHQDWLNGKEYKCKVSNKALPAPIEKTISKAKGQPREPQVYTLPPSREEMTKNQVSLTCLVKGFYPSDIAVEWESNGQPENNYKTTPPVLDSDGSFLYSKLTVDKSRWQQGNVFSCSVMHEALHNHYTQKSLSLSPGK light: not shown",,,,,,0.075 nM,58%,,
"SRP2193-B01 (antibody, IgG1, V domains shown, His/FLAG-tagged IgG1, cell-free) VH: EVQLVESGGGLVQPGGSLRLSCAASGFNIGGYYIHWVRQAPGKGLEWVGAIDPRSGYTVYADSVKGRFTISADTSKNTAYLQMNSLRAEDTAVYYCARSRWFRVLWSFVLDYWGQGTLVTVSS VL: not shown",15300 MFI,0.15 nM,1.13 nM,0.000178 s⁻¹,158000 M⁻¹ s⁻¹,,,0.0023 nM,66%
"SRP2193-B06 (antibody, IgG1, V domains shown, His/FLAG-tagged IgG1, cell-free) VH: EVQLVESGGGLVQPGGSLRLSCAASGFNIDGYYIHWVRQAPGKGLEWVAAIDPHPGSTVYADSVKGRFTISADTSKNTAYLQMNSLRAEDTAVYYCARSRWFRVLWTYVFDYWGQGTLVTVSS VL: not shown",14600 MFI,1.7 nM,5.31 nM,0.000487 s⁻¹,91700 M⁻¹ s⁻¹,,,0.0027 nM,65%
"SRP2193-B09 (antibody, IgG1, V domains shown, His/FLAG-tagged IgG1, cell-free; also called Antibody 75) VH: EVQLVESGGGLVQPGGSLRLSCAASGFNINNSYIHWVRQAPGKGLEWVGIIDPNNGSTAYADSVKGRFTISADTSKNTAYLQMNSLRAEDTAVYYCARSRWYRVLWSYVLDYWGQGTLVTVSS VL: not shown",15200 MFI,0.23 nM,1.9 nM,0.000226 s⁻¹,119000 M⁻¹ s⁻¹,,,0.0029 nM,67%

# Now from value to binder, other results behind:
Bmax (MFI) (human ROR1 (hROR1) [3]),Kd (human ROR1 (hROR1) [3]),Kd [4],koff [4],kon [4],Binder,"cell killing EC50, NTERA-2 cells [1]","cell killing Span, NTERA-2 cells [1]","Mino Nb-PBD, drug-conjugated 2° antibody Cell Killing EC50 (human ROR1 (hROR1) [2])","Mino Nb-PBD, drug-conjugated 2° antibody Cell Killing Span (human ROR1 (hROR1) [2])"
15800 MFI,0.85 nM,6.2 nM,0.00173 s⁻¹,278000 M⁻¹ s⁻¹,"SRP2193-C02 (antibody, IgG1, V domains shown, His/FLAG-tagged IgG1, cell-free; also called Antibody 81) VH: EVQLVESGGGLVQPGGSLRLSCAASGFNISDYYIHWVRQAPGKGLEWVGTIDPQSGSTVYADSVKGRFTISADTSENTAYLQMNSLRAEDTAVYYCARSRWFRVLWSFVFDYWGQGTLVTVSS VL: not shown",,,0.0034 nM,62%
15700 MFI,0.64 nM,2.37 nM,0.000273 s⁻¹,115000 M⁻¹ s⁻¹,"SRP2193-C11 (antibody, IgG1, V domains shown, His/FLAG-tagged IgG1, cell-free) VH: EVQLVESGGGLVQPGGSLRLSCAASGFNIADSYIHWVRQAPGKGLEWVAVIDPKSGSTNYADSVKGRFTISADTSKNTAYLQMNSLRAEDTAVYYCARSRWFRVLWSYVFDYWGQGTLVTVSS VL: not shown",,,0.0015 nM,63%
15500 MFI,0.35 nM,2.22 nM,0.000394 s⁻¹,178000 M⁻¹ s⁻¹,"SRP2193-C09 (antibody, IgG1, V domains shown, His/FLAG-tagged IgG1, cell-free; also called Antibody 118) VH: EVQLVESGGGLVQPGGPLRLSCAASGFNINHSYIHWVRQAPGKGLEWVGAIDPISGSTVYADSVKGRFTISADTSKNTAYLQMNSLRAEDTAVYYCARSRWSRVLWSYVFDYWGQGTLVTVSS VL: not shown",,,0.0016 nM,64%
15000 MFI,0.7 nM,2.81 nM,0.000292 s⁻¹,104000 M⁻¹ s⁻¹,"SRP2193-D04 (antibody, IgG1, V domains shown, His/FLAG-tagged IgG1, cell-free; also called Antibody 71) VH: EVQLVESGGGLVQPGGSLRLSCAASGFNINGFYIHWVRQAPGKGLEWVGAIDPNGGSTVYADSVKGRFTISADTSKNTAYLQMNSLRAEDTAVYYCARSRWYRVLWSYAFDYWGQGTLVTVSS VL: not shown",,,0.0045 nM,65%
14700 MFI,5.82 nM,2.23 nM,0.000246 s⁻¹,111000 M⁻¹ s⁻¹,"SRP2193-E06 (antibody, IgG1, V domains shown, His/FLAG-tagged IgG1, cell-free; also called Antibody 73) VH: EVQLVESGGGLVRPGGSLRLSCAASGFNIDDYYIHWVRQAPGKGLEWVGVIDPKNGSTVYADSVKGRSTISADTPKSTAYLQMNSLRAEDTAVYYCARSRWFRVLWSYVFDYWGQGTLVTVSS VL: not shown",,,0.0025 nM,63%
18300 MFI,0.1 nM,0.674 nM,0.000199 s⁻¹,295000 M⁻¹ s⁻¹,"SRP2193-E05 (antibody, IgG1, V domains shown, His/FLAG-tagged IgG1, cell-free; also called Antibody 84) VH: EVQLVESGGGLVQPGGSLRLSCAASGFNIKRSYIHWVRQAPGKGLEWVVSIDPNGSSTHYADSVKGRFTISADTSKNTAYLQMNSLRAEDTAVYYCARSRWFRVLWSYVLDYWGQGTLVTVSS VL: not shown",,,0.00034 nM,70%
14300 MFI,0.28 nM,101 nM,0.6 s⁻¹,5.94e+06 M⁻¹ s⁻¹,"SRP2193-D06 (antibody, IgG1, V domains shown, His/FLAG-tagged IgG1, cell-free; also called Antibody 80) VH: EVQLVESGGGLVQPGGSLRLSCAASGFNIRDYYIHWVRQAPGKGLEWVRAIDPHSGSTVYADSVKGRFTISADTSKNTAYLQMNSLRAEDTAVYYCARSRWFRVLWSYVFDYWGQGTLVTVSS VL: not shown",,,0.0057 nM,68%
15200 MFI,0.46 nM,1.59 nM,0.000251 s⁻¹,158000 M⁻¹ s⁻¹,"SRP2193-B11 (antibody, IgG1, V domains shown, His/FLAG-tagged IgG1, cell-free; also called Antibody 100) VH: EVQLVESGGGLVQPGGSLRLSCAASGFNITGSYIHWVRQAPGKGLEWVGAIDPKSGFTSYADSAKGRFTISADTSKNTAYLQMNSLRAEDTAVYYCARSRWFRVLWSFVFDYWGQGTLVTVSS VL: not shown",,,0.0013 nM,66%
